Measured values published in publication PMC10397247.

Experiments:
4H1831-bH = biological target: T1, 4H1831-bH; assay: two-hybrid library CCNG1;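 further: natural log of median RNA to DNA barcode read ratio; higher means stronger binding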
T1 chain: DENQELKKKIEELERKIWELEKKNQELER

4H457-bH = biological target: T2, 4H457-bH; assay: two-hybrid library CCNG1;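 further: natural log of median RNA to DNA barcode read ratio; higher means stronger binding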
T2 chain: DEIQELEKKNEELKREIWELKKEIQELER

4H855-bH = biological target: T3, 4H855-bH; assay: two-hybrid library CCNG1;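 further: natural log of median RNA to DNA barcode read ratio; higher means stronger binding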
T3 chain: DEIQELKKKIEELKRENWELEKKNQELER

4H918-bH = biological target: T4, 4H918-bH; assay: two-hybrid library CCNG1;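 further: natural log of median RNA to DNA barcode read ratio; higher means stronger binding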
T4 chain: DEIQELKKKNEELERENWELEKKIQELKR

4H683-bH = biological target: T5, 4H683-bH; assay: two-hybrid library CCNG1
T5 chain: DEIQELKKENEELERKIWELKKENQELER

4H2233-bH = biological target: T6, 4H2233-bH; assay: two-hybrid library CCNG1
T6 chain: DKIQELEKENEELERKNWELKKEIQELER

4H2627-bH = biological target: T7, 4H2627-bH; assay: two-hybrid library CCNG1
T7 chain: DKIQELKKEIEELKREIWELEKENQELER

4H2702-bH = biological target: T8, 4H2702-bH; assay: two-hybrid library CCNG1
T8 chain: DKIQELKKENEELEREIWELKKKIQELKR

4H2673-bH = biological target: T9, 4H2673-bH; assay: two-hybrid library CCNG1
T9 chain: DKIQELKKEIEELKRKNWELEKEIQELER

4H754-bH = biological target: T10, 4H754-bH; assay: two-hybrid library CCNG1
T10 chain: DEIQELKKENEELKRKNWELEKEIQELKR

4H3112-bH = biological target: T11, 4H3112-bH; assay: two-hybrid library CCNG1
T11 chain: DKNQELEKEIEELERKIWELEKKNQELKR

4H118-bH = biological target: T12, 4H118-bH; assay: two-hybrid library CCNG1
T12 chain: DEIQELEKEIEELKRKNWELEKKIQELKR

4H112-bH = biological target: T13, 4H112-bH; assay: two-hybrid library CCNG1
T13 chain: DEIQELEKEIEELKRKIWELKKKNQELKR

4H780-bH = biological target: T14, 4H780-bH; assay: two-hybrid library CCNG1
T14 chain: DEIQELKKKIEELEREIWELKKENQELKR

4H968-bH = biological target: T15, 4H968-bH; assay: two-hybrid library CCNG1
T15 chain: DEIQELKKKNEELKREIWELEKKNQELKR

4H346-bH = biological target: T16, 4H346-bH; assay: two-hybrid library CCNG1
T16 chain: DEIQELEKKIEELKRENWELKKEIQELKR

4H2586-bH = biological target: T17, 4H2586-bH; assay: two-hybrid library CCNG1
T17 chain: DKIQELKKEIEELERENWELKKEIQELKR

4H797-bH = biological target: T18, 4H797-bH; assay: two-hybrid library CCNG1
T18 chain: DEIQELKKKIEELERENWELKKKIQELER

4H3010-bH = biological target: T19, 4H3010-bH; assay: two-hybrid library CCNG1
T19 chain: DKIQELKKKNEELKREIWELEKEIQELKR

4H575-bH = biological target: T20, 4H575-bH; assay: two-hybrid library CCNG1
T20 chain: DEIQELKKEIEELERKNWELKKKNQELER

4H953-bH = biological target: T21, 4H953-bH; assay: two-hybrid library CCNG1
T21 chain: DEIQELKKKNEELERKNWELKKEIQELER

4H3427-bH = biological target: T22, 4H3427-bH; assay: two-hybrid library CCNG1
T22 chain: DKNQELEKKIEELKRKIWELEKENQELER

4H170-bH = biological target: T23, 4H170-bH; assay: two-hybrid library CCNG1
T23 chain: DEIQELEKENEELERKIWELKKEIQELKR

4H4073-bH = biological target: T24, 4H4073-bH; assay: two-hybrid library CCNG1
T24 chain: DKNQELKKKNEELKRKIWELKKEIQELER

4H1158-bH = biological target: T25, 4H1158-bH; assay: two-hybrid library CCNG1
T25 chain: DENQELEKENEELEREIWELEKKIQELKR

4H3926-bH = biological target: T26, 4H3926-bH; assay: two-hybrid library CCNG1
T26 chain: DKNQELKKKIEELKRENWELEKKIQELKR

P4A-bH = biological target: T27, P4A-bH; assay: two-hybrid library CCNG1
T27 chain: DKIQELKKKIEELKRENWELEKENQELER

P5A-bH = biological target: T28, P5A-bH; assay: two-hybrid library CCNG1
T28 chain: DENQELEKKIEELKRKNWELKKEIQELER

P6A-bH = biological target: T29, P6A-bH; assay: two-hybrid library CCNG1
T29 chain: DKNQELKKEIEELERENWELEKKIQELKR

P12A-bH = biological target: T30, P12A-bH; assay: two-hybrid library CCNG1
T30 chain: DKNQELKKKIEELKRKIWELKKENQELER

P2A-bH = biological target: T31, P2A-bH; assay: two-hybrid library CCNG1
T31 chain: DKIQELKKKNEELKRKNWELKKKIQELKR

P8A-bH = biological target: T32, P8A-bH; assay: two-hybrid library CCNG1
T32 chain: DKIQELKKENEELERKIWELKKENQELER

P3A-bH = biological target: T33, P3A-bH; assay: two-hybrid library CCNG1
T33 chain: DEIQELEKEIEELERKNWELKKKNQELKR

P1A-bH = biological target: T34, P1A-bH; assay: two-hybrid library CCNG1
T34 chain: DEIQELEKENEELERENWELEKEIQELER

P11A-bH = biological target: T35, P11A-bH; assay: two-hybrid library CCNG1
T35 chain: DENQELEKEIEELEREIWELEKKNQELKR

P7A-bH = biological target: T36, P7A-bH; assay: two-hybrid library CCNG1
T36 chain: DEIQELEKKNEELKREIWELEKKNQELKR

O9 = biological target: T37, O9; assay: two-hybrid library CCNG1
T37 chain: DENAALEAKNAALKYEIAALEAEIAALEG

O13 = biological target: T38, O13; assay: two-hybrid library CCNG1
T38 chain: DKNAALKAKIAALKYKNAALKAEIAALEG

O8 = biological target: T39, O8; assay: two-hybrid library CCNG1
T39 chain: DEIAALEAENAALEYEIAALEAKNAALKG

O6 = biological target: T40, O6; assay: two-hybrid library CCNG1
T40 chain: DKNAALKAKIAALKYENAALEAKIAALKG

O15 = biological target: T41, O15; assay: two-hybrid library CCNG1
T41 chain: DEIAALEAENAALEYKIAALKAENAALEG

O12 = biological target: T42, O12; assay: two-hybrid library CCNG1
T42 chain: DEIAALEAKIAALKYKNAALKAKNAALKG

O3 = biological target: T43, O3; assay: two-hybrid library CCNG1
T43 chain: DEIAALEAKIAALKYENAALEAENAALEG

O16 = biological target: T44, O16; assay: two-hybrid library CCNG1
T44 chain: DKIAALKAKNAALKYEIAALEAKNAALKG

O4 = biological target: T45, O4; assay: two-hybrid library CCNG1
T45 chain: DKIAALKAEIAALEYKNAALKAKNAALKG

O2 = biological target: T46, O2; assay: two-hybrid library CCNG1
T46 chain: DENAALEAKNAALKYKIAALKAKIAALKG

O7 = biological target: T47, O7; assay: two-hybrid library CCNG1
T47 chain: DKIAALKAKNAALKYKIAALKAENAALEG

O11 = biological target: T48, O11; assay: two-hybrid library CCNG1
T48 chain: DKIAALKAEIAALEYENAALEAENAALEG

O5 = biological target: T49, O5; assay: two-hybrid library CCNG1
T49 chain: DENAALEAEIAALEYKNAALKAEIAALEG

O14 = biological target: T50, O14; assay: two-hybrid library CCNG1
T50 chain: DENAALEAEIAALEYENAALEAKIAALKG

O10 = biological target: T51, O10; assay: two-hybrid library CCNG1
T51 chain: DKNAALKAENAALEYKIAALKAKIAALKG

P6SC1 [1] = biological target: T52, P6SC1; assay: two-hybrid library CCNG1
T52 chain: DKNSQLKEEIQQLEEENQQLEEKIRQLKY

P6SC2 [2] = biological target: T53, P6SC2; assay: two-hybrid library CCNG1
T53 chain: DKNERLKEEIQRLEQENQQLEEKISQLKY

P6SC1 [3] = biological target: T52, P6SC1; assay: two-hybrid library CCmax; conditions: mean of both orientations
P6SC2 [4] = biological target: T53, P6SC2; assay: two-hybrid library CCmax; conditions: mean of both orientations

For DEIQELEKEIEELKRKIWELKKKNQELKR [4H112-bH], the interaction score (4H1831-bH) was 0.143, the interaction score (4H457-bH) was 1.45 and the interaction score (4H855-bH) was -0.0783. The interaction score (4H918-bH) was -0.152, the interaction score (4H683-bH) was 0.914 and the interaction score (4H2233-bH) was -0.606. For the same binder, the interaction score (4H2627-bH) was 1.4, the interaction score (4H2702-bH) was 0.179 and the interaction score (4H2673-bH) was 0.53. The interaction score (4H754-bH) was -0.515, the interaction score (4H3112-bH) was 1.27 and the interaction score (4H118-bH) was 0.444. The interaction score (4H112-bH) was 1.65, the interaction score (4H780-bH) was 0.211 and the interaction score (4H968-bH) was 0.0767. The interaction score (4H346-bH) was 0.154, the interaction score (4H2586-bH) was 0.807 and the interaction score (4H797-bH) was -0.295. For the same binder, the interaction score (4H3010-bH) was 1.49, the interaction score (4H575-bH) was -0.63 and the interaction score (4H953-bH) was -0.228. The interaction score (4H3427-bH) was 1.48, the interaction score (4H170-bH) was -0.736 and the interaction score (4H4073-bH) was 1.39. It also gave an interaction score (4H1158-bH) of 1.45 and an interaction score (4H3926-bH) of 0.23.

Work on DKNQELKKENEELERKIWELKKKIQELKR [P10A-bH] yielded an interaction score (P4A-bH) of 0.192, an interaction score (P5A-bH) of -0.49 and an interaction score (P6A-bH) of 0.998. For the same binder, the interaction score (P12A-bH) was 1.15, the interaction score (P2A-bH) was -0.586 and the interaction score (P8A-bH) was -0.68. For the same binder, the interaction score (P3A-bH) was 0.247, the interaction score (P1A-bH) was 1.06 and the interaction score (P11A-bH) was -0.118. For the same binder, the interaction score (P7A-bH) was 0.686.

DKNAALKAENAALEYKIAALKAKIAALKG [O10] showed an interaction score (O9) of 2.21, an interaction score (O13) of -1.79 and an interaction score (O8) of -1.57. For the same binder, the interaction score (O6) was -2.48, the interaction score (O15) was -1.1 and the interaction score (O12) was -2.06. It also gave an interaction score (O3) of -1.83, an interaction score (O16) of -1.79 and an interaction score (O4) of -1.67. It also gave an interaction score (O2) of -0.272, an interaction score (O7) of -2.17 and an interaction score (O11) of -1.61. The interaction score (O5) was -0.483, the interaction score (O14) was -2.41 and the interaction score (O10) was -2.12.

Work on DENARLEEKIRQLKQKNSQLKEEIQQLEY [P5SC2] yielded an interaction score (P6SC1 [1]) of 0.383, an interaction score (P6SC2 [2]) of 0.391 and an interaction score (P6SC1 [3]) of 0.953. It also gave an interaction score (P6SC2 [4]) of 0.811.
